From patent US20250188479A1

Substrate: CC(C)=CCC/C(C)=C/COP(=O)(O)OP(=O)(O)O
Test: purified protein, by the assay type
Conditions: other: purified wildtype RhNUDX1, this study; pH 8.0

B1: Rosa hybrida (Rosa hybrid cultivar) RhNUDX1, GPP phosphohydrolase, wildtype, UniProt JQ820249, SEQ ID NO: 14 (Rosa hybrid cultivar) (protein)
chain: MGNETVVVAETAGSIKVAVVVCLLRGQNVLLGRRRSSLGDSTFSLPSGHLEFGESFEECAARELKEETDLDIGKIELLTVTNNLFLDEAKPSQYVAVFMRAVLADPRQEPQNIEPEFCDGWGWYEWDNLPKPLFWPLDNVVQDGFNPFPT
Work on B1 yielded a Km of 46.4 ± 4.4 µM, a kcat of 0.36 s⁻¹ and a kcat/Km of 7747 ± 1736 M⁻¹ s⁻¹.
